Laboratory results from patent US8865648B2, “Monomeric and dimeric forms of adiponectin receptor fragments and methods of use” (Siemens Healthcare Diagnostics Inc., priority 2009, dated 2014).
Bridge positions count the residues as written; N and C are the ends. Ends that are not written are not given here. I, II: the chains in the order shown.

What was measured:
ADAM-17 = ADAM-17 (Homo sapiens, UniProt P78536); assay: Inhibition of enzymes: ADAM-17 inhibition; format: biochemical; conditions: ADAM-17 at level of 400 ng/ml
Protocol: (§1) Inhibition of insulin degradation enzyme (IDE) is a biological function of CTF. The inhibition reduces insulin degradation in the liver and other tissues and thereby increases insulin levels in the blood. The enzymes for cleavage of the dimers are also potential therapeutic targets. Each of the peptides synthesized in Example 1 was tested for their effect on cleavage and target enzymes (ADAM-17 and IDE at level of 400 ng/ml).

[1] = when administered to patients; cited from earlier work
[2] = biological target: insulin degradation enzyme (IDE) (Homo sapiens, UniProt P14735); assay: Inhibition of enzymes: insulin degradation enzyme (IDE) inhibition; format: biochemical; conditions: for IDE Inhibition (90% inhibition at): IDE at level of 400 ng/ml, peptide level giving 90% inhibition
Protocol: as §1

Sequence of ADAM-17 (P78536 215-824): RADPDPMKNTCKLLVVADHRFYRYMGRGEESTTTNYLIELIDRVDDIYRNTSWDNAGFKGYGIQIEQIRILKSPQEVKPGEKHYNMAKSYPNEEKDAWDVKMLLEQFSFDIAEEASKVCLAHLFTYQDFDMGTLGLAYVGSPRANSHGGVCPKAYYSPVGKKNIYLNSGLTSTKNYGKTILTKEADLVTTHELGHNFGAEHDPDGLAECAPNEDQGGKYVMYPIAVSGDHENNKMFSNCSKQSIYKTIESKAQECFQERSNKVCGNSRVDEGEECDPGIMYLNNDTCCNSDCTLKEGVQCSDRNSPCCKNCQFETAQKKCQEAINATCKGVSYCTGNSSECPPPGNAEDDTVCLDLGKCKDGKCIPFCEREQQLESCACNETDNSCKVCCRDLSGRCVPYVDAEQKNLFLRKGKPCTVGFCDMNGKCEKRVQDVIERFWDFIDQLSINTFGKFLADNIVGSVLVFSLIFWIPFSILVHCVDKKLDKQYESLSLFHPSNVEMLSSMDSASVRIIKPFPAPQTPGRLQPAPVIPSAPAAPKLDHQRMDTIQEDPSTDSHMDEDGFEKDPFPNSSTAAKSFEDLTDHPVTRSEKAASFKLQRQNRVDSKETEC

Row | Molecule | ADAM-17 Inhibition (observed) (ADAM-17) | IDE Inhibition (90% inhibition at) [2] | insulin-sensitizing effect [1] | activity of heterodimer compared with corresponding homodimers ([2]; comparison drawn from the data in TABLE 2)
1 | VVAAAFVHFYGVSNLQEFRYGLEGGCTDDTLL [R1 CTF32, C-terminal fragment of ADIPOR1, 32 amino acids] | Positive |  | acted as an insulin-sensitizing agent | 
2 | HFHGVSNLQEFRFMIGGGCSEEDAL [R2 CTF25] | Negative |  |  | 
3 | HVLVVAAAFVHFYGVSNLQEFRYGLEGGCT [R1 CTF30] | Negative | Negative |  | 
4 | GGCSEEDAL [R2 CTF9] | Negative | Negative |  | 
5 | HFYGVSNLQEFRYGLEGGCTDDTLL [R1 CTF25] | Negative |  |  | 
6 | R1 CTF32 R2 CTF32: SEQ ID NO:1 linked via a disulfide bond to SEQ ID NO:2 (disulfide I:26-II:26 (inferred)) chain 1: VVAAAFVHFYGVSNLQEFRYGLEGGCTDDTLL chain 2: VVAGAFVHFHGVSNLQEFRFMIGGGCSEEDAL | Positive |  |  | more active than the corresponding homodimers

Second part, led by results:

Row | ADAM-17 Inhibition (observed) (ADAM-17) | IDE Inhibition (90% inhibition at) [2] | Molecule | insulin-sensitizing effect [1] | activity of heterodimer compared with corresponding homodimers ([2]; comparison drawn from the data in TABLE 2)
7 | Negative |  | R1 CTF25 R2 CTF25: SEQ ID NO:5 linked via a disulfide bond to SEQ ID NO:6 (chain 1 HFYGVSNLQEFRYGLEGGCTDDTLL; chain 2 HFHGVSNLQEFRFMIGGGCSEEDAL; disulfide I:19-II:19 (inferred)) |  | 
8 | Negative | negative | GGCTDDTLL [R1 CTF9] |  | 
9 | Negative | negative | LQEFRYGLEGGCTDDTLL [R1 CTF17] |  | 
10 | Positive |  | VVAGAFVHFHGVSNLQEFRFMIGGGCSEEDAL [R2 CTF32, C-terminal fragment of ADIPOR2, 32 amino acids] |  | 
11 | Positive |  | R2 CTF32 R2 CTF32: SEQ ID NO:2 linked via a disulfide bond to SEQ ID NO:2 (disulfide I:26-II:26 (inferred)) chain 1: VVAGAFVHFHGVSNLQEFRFMIGGGCSEEDAL chain 2: VVAGAFVHFHGVSNLQEFRFMIGGGCSEEDAL |  | 
12 | Positive |  | R1 CTF32 R1 CTF32: SEQ ID NO:1 linked via a disulfide bond to SEQ ID NO:1 (disulfide I:26-II:26 (inferred)) chain 1: VVAAAFVHFYGVSNLQEFRYGLEGGCTDDTLL chain 2: VVAAAFVHFYGVSNLQEFRYGLEGGCTDDTLL |  | 
